Experimental data taken from doi:10.1101/2025.11.21.689414 (bioRxiv, 2025).
Blank lines part the entries; values can stand above or below the binder they belong to.

Legend:
parvin alpha (PARVA) = parvin alpha (PARVA) (Homo sapiens (species ; …, UniProt Q9NVD7); assay: ELISA
[1] = molecular target: Frizzled class receptor 7 (Fzd7), His-tagged (UniProt O75084); assay: BLI
[2] = molecular target: alpha hemoglobin stabilizing protein (AHSP) (Homo sapiens (species ; …, UniProt Q9NZD4); assay: ELISA
alpha hemoglobin stabilizing protein (AHSP) (Homo sapiens, sequence (Q9NZD4 whole entry): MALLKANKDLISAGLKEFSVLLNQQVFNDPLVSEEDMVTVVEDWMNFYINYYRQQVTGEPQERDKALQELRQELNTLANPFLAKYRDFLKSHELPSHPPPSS

parvin alpha (PARVA) (Homo sapiens, sequence (Q9NVD7 whole entry): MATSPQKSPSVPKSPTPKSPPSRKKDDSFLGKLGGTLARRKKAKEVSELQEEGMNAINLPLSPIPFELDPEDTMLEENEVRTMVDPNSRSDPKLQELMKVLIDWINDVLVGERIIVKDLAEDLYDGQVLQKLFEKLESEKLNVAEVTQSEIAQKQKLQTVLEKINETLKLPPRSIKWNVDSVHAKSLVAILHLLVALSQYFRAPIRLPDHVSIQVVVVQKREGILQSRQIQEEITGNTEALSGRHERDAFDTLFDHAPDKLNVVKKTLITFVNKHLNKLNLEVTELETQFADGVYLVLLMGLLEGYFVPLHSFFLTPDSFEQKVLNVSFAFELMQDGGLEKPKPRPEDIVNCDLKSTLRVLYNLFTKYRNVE

- binding result (parvin alpha (PARVA)): binds
B1: representative PARVA binder (GaluxDesign de novo designed full-length IgG, cross-platform benchmark) (antibody, V domains shown)
VH: EEQLVESGGGLVQPGGSLRLSCAASGFNIKDYWIHWVRQAPGKGLEWVAWINPQSGWTNYADSVKGRFTISADTSKNTAYLQMNSLRAEDTATYYCAKIGDWGGKGYALDVWGQGTLVTVSS
VL: DIVMTQSPSSLSASVGDRVTITCRASQDISTALAWYQQKPGQAPKLLIYKASSLASGVPSRFSGSGSGTDFTLTISSLQPEDFATYYCQQFRDLSTLTFGQGTKVEIK

- binding result [1]: binds
B2: F7.B (reference anti-Fzd7 antibody, PDB entry 6O3A) (antibody, V domains shown)
VH: EVQLVESGGGLVQPGGSLRLSCAASGFNFSSSSIHWVRQAPGKGLEWVAYIYPSYDYTYYADSVKGRFTISADTSKNTAYLQMNSLRAEDTAVYYCARGYFYTWGGMDYWGQGTLVTVSS
VL: DIQMTQSPSSLSASVGDRVTITCRASQSVSSAVAWYQQKPGKAPKLLIYSASSLYSGVPSRFSGSRSGTDFTLTISSLQPEDFATYYCQQYYSLFTFGQGTKVEIK

- binding result [2]: binds
B3: representative AHSP binder (GaluxDesign de novo designed full-length IgG, cross-platform benchmark) (antibody, V domains shown)
VH: VQLVESGGGLVQPGGSLRLSCAASGFNIKSFWIHWVRQAPGKGLEWVAWIFALTGNTYYADSVKGRFTISADTSKNTAYLQMNSLRAEDTAVYYCAKASGVSIPLWFDVWGQGTLVTVSS
VL: DIQMTQSPSSLSASVGDKVTITCKASQDISNYLAWYQQKPGKAPKLLIYAASNRKYGVPSRFSGSGSGTDFTLTISSLQPEDFATYYCQQYYSTPLTFGQGTKVEIK
